Among the data in patent US20220280615A1 are percent of IgG in depots values, retold here.

Sequences and labels used below:
B1: iTEP112-IBD (designed binder)
chain: GVLPGVGGVLPGVGGVLPGVGGVLPGVGGVLPGVGGVLPGVGGVLPGVGGVLPGVGGVLPGVGGVLPGVGGVLPGVGGVLPGVGGVLPGVGGVLPGVGGVLPGVGGVLPGVGGVLPGVGGVLPGVGGVLPGVGGVLPGVGGVLPGVGGVLPGVGGVLPGVGGVLPGVGGVLPGVGGVLPGVGGVLPGVGGVLPGVGGVLPGVGGVLPGVGGVLPGVGGVLPGVGGVLPGVGGVLPGVGGVLPGVGGVLPGVGGVLPGVGGVLPGVGGVLPGVGGVLPGVGGVLPGVGGVLPGVGGVLPGVGGVLPGVGGVLPGVGGVLPGVGGVLPGVGGVLPGVGGVLPGVGGVLPGVGGVLPGVGGVLPGVGGVLPGVGGVLPGVGGVLPGVGGVLPGVGGVLPGVGGVLPGVGGVLPGVGGVLPGVGGVLPGVGGVLPGVGGVLPGVGGVLPGVGGVLPGVGGVLPGVGGVLPGVGGVLPGVGGVLPGVGGVLPGVGGVLPGVGGVLPGVGGVLPGVGGVLPGVGGVLPGVGGVLPGVGGVLPGVGGVLPGVGGVLPGVGGVLPGVGGVLPGVGGVLPGVGGVLPGVGGVLPGVGGVLPGVGGVLPGVGGVLPGVGGVLPGVGGVLPGVGGVLPGVGGVLPGVGGVLPGVGGVLPGVGGVLPGVGGVLPGVGGVLPGVGGVLPGVGGVLPGVGGVLPGVGGVLPGVGGVLPGVGGVLPGVGGVLPGVGGVLPGVGGVLPGVGGVLPGVGGVLPGVGGVLPGVGGVLPGVGGVLPGVGGVLPGVGGVLPGVGGGGGSTTYKLVINGKTLKGETTTKAVDAETAEKAFKQYANDNGVDGVWTYDDATKTFTVTE
B2: iTEP28-IBD (designed binder)
chain: GVLPGVGGVLPGVGGVLPGVGGVLPGVGGVLPGVGGVLPGVGGVLPGVGGVLPGVGGVLPGVGGVLPGVGGVLPGVGGVLPGVGGVLPGVGGVLPGVGGVLPGVGGVLPGVGGVLPGVGGVLPGVGGVLPGVGGVLPGVGGVLPGVGGVLPGVGGVLPGVGGVLPGVGGVLPGVGGVLPGVGGVLPGVGGVLPGVGGGGGSTTYKLVINGKTLKGETTTKAVDAETAEKAFKQYANDNGVDGVWTYDDATKTFTVTE
B3: iTEP56-IBD (designed binder)
chain: GVLPGVGGVLPGVGGVLPGVGGVLPGVGGVLPGVGGVLPGVGGVLPGVGGVLPGVGGVLPGVGGVLPGVGGVLPGVGGVLPGVGGVLPGVGGVLPGVGGVLPGVGGVLPGVGGVLPGVGGVLPGVGGVLPGVGGVLPGVGGVLPGVGGVLPGVGGVLPGVGGVLPGVGGVLPGVGGVLPGVGGVLPGVGGVLPGVGGVLPGVGGVLPGVGGVLPGVGGVLPGVGGVLPGVGGVLPGVGGVLPGVGGVLPGVGGVLPGVGGVLPGVGGVLPGVGGVLPGVGGVLPGVGGVLPGVGGVLPGVGGVLPGVGGVLPGVGGVLPGVGGVLPGVGGVLPGVGGVLPGVGGVLPGVGGVLPGVGGVLPGVGGVLPGVGGVLPGVGGVLPGVGGVLPGVGGVLPGVGGGGGSTTYKLVINGKTLKGETTTKAVDAETAEKAFKQYANDNGVDGVWTYDDATKTFTVTE

In this assay the target is Human IgG (polyclonal, Innovative Research) (human). Nature of the assay: depot trapping: polypeptide mixed with fluorescein-labeled human IgG (1 mg/mL), 37 °C, centrifuged, pellet fluorescence; molar ratio 8 or higher.
B1: the percent of IgG in depots was determined as 90%. As for B2, the percent of IgG in depots was 55%. With B3, the percent of IgG in depots was 90%.
